This note sets out measurements from patent US20240294640A1 (published 2024).

Like-named read-outs stand apart in the source and are kept apart here.

Broadly, the EC50 is the concentration giving half of the maximal effect. A high value points to weaker potency.

Experiment [1] deals with T1, CD3 naturally expressed on Jurkat cells (human, UniProt P07766 23-207). In words: FACS.
Experiment [2] concerns the target T1, CD3 naturally expressed on Jurkat cells. In words: FACS. This is another data set of the same source. In general terms: A flow cytometer gives signals particle by particle.

T1 sequence (P07766 23-207): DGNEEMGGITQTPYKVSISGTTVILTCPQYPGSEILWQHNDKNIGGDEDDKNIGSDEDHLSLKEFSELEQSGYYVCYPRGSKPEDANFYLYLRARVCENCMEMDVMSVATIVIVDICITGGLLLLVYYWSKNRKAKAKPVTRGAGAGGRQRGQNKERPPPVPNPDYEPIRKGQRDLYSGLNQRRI

B1: QP374437481461 (antibody)
chain 1: not shown
chain 2: MEFGLSWLFLVAILKGVQCQVQLVQSGAEVKKPGASVKVSCKASGYTFTSYIMHWVRQAPGQGLEWMGYINPYNDGTKYNEKFKGRVTMTRDTSTSTVYMELSSLRSEDTAVYYCARLGFTTRNAMDYWGQGTLVTVSSASTKGPSVFPLAPSSKSTSGGTAALGCLVKDYFPEPVTVSWNSGALTSGVHTFPAVLQSSGLYSLSSVVTVPSSSLGTQTYICNVNHKPSNTKVDKKVEPKSCESKYGPPCPPCPAPEFLGGPSVFLFPPKPKDTLMISRTPEVTCVVVDVSQEDPEVQFNWYVDGVEVHNAKTKPREEQFNSTYRVVSVLTVLHQDWLNGKEYKCKVSNKGLPSSIEKTISKAKGQPREPQVYTLPPSQEEMTKNQVSLSCAVKGFYPSDIAVEWESNGQPENNYKTTPPVLDSDGSFFLVSRLTVDKSRWQEGNVFSCSVMHEALHNHYTQKSLSLSLGGSSDYKDDDDK
chain 3: not shown
With B1, a half-maximal effect in experiment [1] (EC50) was put at 133 nM.

B2: QP090837493746 (bispecific antibody)
chain 1: not shown
chain 2: not shown
chain 3: QVQLVQSGAEVKKPGASVKVSCKASGYTFTSYIMHWVRQAPGQGLEWMGYINPYNDGTKYNEKFKGRVTMTRDTSTSTVYMELSSLRSEDTAVYYCARLGFTTRNAMDYWGQGTLVTVSSASTKGPSVFPLAPSSKSTSGGTAALGCLVKDYFPEPVTVSWNSGALTSGVHTFPAVLQSSGLYSLSSVVTVPSSSLGTQTYICNVNHKPSNTKVDKKVEPKSC
In the case of B2, a half-maximal effect in experiment [2] (EC50) was put at 64.3 nM.

B3: QP090937493746 (bispecific antibody)
chain 1: not shown
chain 2: not shown
chain 3: QVQLVQSGAEVKKPGASVKVSCKASGYTFTSYIMHWVRQAPGQGLEWMGYINPYNDGTKYNEKFKGRVTMTRDTSTSTVYMELSSLRSEDTAVYYCARLGFTTRNAMDYWGQGTLVTVSSASTKGPSVFPLAPSSKSTSGGTAALGCLVKDYFPEPVTVSWNSGALTSGVHTFPAVLQSSGLYSLSSVVTVPSSSLGTQTYICNVNHKPSNTKVDKKVEPKSC
In experiment [2], B3 gave an EC50 of 21.9 nM.

B4: QP091037493746 (bispecific antibody)
chain 1: not shown
chain 2: not shown
chain 3: QVQLVQSGAEVKKPGASVKVSCKASGYTFTSYIMHWVRQAPGQGLEWMGYINPYNDGTKYNEKFKGRVTMTRDTSTSTVYMELSSLRSEDTAVYYCARLGFTTRNAMDYWGQGTLVTVSSASTKGPSVFPLAPSSKSTSGGTAALGCLVKDYFPEPVTVSWNSGALTSGVHTFPAVLQSSGLYSLSSVVTVPSSSLGTQTYICNVNHKPSNTKVDKKVEPKSC
Consider B4, for which a half-maximal response in experiment [2] (EC50) required 34 nM. Against the preceding molecule, the EC50 is about 1.6-fold higher.

B5: QP372337241461 (antibody)
chain 1: MEFGLSWLFLVAILKGVQCQVQLVQSGAEVKKPGASVKVSCKASGYTFTSYIMHWVRQAPGQGLEWMGYINPYNDGTKYNEKFKGRVTMTRDTSTSTVYMELSSLRSEDTAVYYCARLGFTTRNAMDYWGQGTLVTVSSASTKGPSVFPLAPSSKSTSGGTAALGCLVKDYFPEPVTVSWNSGALTSGVHTFPAVLQSSGLYSLSSVVTVPSSSLGTQTYICNVNHKPSNTKVDKKVEPKSCGGGGSGGGGSGGGGSEVQLLESGGGLVQPGGSLKLSCAASGFTFNTYAMNWVRQAPGKGLEWVARIRSKYNNYATYYADSVKDRFTISRDDSKNTAYLQMNNLKTEDTAVYYCVRHGNFGNSYVSWFAYWGQGTLVTVSSGGGGSGGGGSGGGGSESKYGPPCPPCPAPEFLGGPSVFLFPPKPKDTLMISRTPEVTCVVVDVSQEDPEVQFNWYVDGVEVHNAKTKPREEQFNSTYRVVSVLTVLHQDWLNGKEYKCKVSNKGLPSSIEKTISKAKGQPREPQVYTLPPSQEEMTKNQVSLSCAVKGFYPSDIAVEWESNGQPENNYKTTPPVLDSDGSFFLVSRLTVDKSRWQEGNVFSCSVMHEALHNHYTQKSLSLSLGGSSDYKDDDDK
chain 2: not shown
chain 3: not shown
Molecule B5 yielded an EC50 in experiment [1] of 172 nM.
